# Changes are numbered by the printed parent chain.
# B1: antibody 1.29.1 (antibody, human IgG2, kappa, V domains shown)
# VH: QVQLVESGGGVVQPGRSLRLSCAASGFTFSSYGMHWVRQAPGKGLEWVAVIWYDGSDKYYADSVKGRFTISRDNSKNTLYLQMNSLRAEDTAVYYCAREDYGEGFDYWGQGTLVTVSS
# VL: not shown
# notes: also called antibody to HGF ultimately derived from hybridoma 1.29.1
# B2: antibody 3.10.1 (antibody, human IgG1, kappa, V domains shown)
# VH: QVQLQQWGAGLLKPSETLSLTCAVYGGSFSTYYWSWIRQPPGKGLEWIGEINHSGSTNYNPSLKSRVTISVDTSKNQFSLKLSSVTAADTAVYYCARGGYDFWSGYYDYWGQGTLVTVSS
# VL: not shown
# notes: also called antibody to HGF ultimately derived from hybridoma 3.10.1
# B3: antibody 1.24.1 (antibody, human IgG2, kappa, V domains shown)
# VH: QVQLVESGGGLVKPGGSLRLSCAASGFTFSDYYMSWIRQAPGKGLEWVSYISSSGSTIYYADSVKGRFTISRDNAKNSLYLQMNSLRAEDTAVYYCARDEYNSGWYVLFDYWGQGTLVTVSS
# VL: DIQMTQSPSSVSASVGDRVTITCRASQGISSWLAWYQQKPGKAPNLLIYEASSLQSGVPSRFGGSGSGTDFTLTISSLQPEDFATYYCQQANGFPWTFGQGTKVEIKR
# notes: also called antibody to HGF ultimately derived from hybridoma 1.24.1
# B4: antibody 1.74.3 (antibody, human IgG2, kappa, V domains shown)
# VH: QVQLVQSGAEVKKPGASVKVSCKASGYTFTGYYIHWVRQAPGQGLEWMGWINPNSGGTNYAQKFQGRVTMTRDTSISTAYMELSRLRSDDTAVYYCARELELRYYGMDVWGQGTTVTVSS
# VL: DIQMTQSPSSLSASVGDRVTITCRASQSINSDLNWYQQKPGKVPKLLIYVASSLQNGVPSRFSGSGSGTDFTLTISSLQPEDFATYYCQRSYSTPPTFGPGTKVDIKR
# notes: also called 1.74.1; 1.74.2
# B5: antibody 1.75.1 (antibody, human IgG2, kappa, V domains shown)
# VH: QVQLQESGPGLVKPSQTLSLTCTVSGGSISSGGYYWSWIRQHPGKGLEWIGYIYYSGSTYYNPSLKSRVTISVDTSKNQFSLKVSSVTAADTAVYYCARDPLWFGEFDYYGMDVWGQGTTVTVSS
# VL: DIQMTQSPSSLSASVGDRVTITCRASQGIRNDLGWFQQKPGKAPKRLIYAASSLQSGVPSRFSGSGSGTEFTLTISSLQPEDFATYYCLQHDSYPLTFGGGTKVEIKR
# notes: also called antibody to HGF ultimately derived from hybridoma 1.75.1
# B6: antibody 2.40.1 (antibody, human IgG2, kappa, V domains shown)
# VH: QVQLQESGPGLVKPSQTLSLTCTVSGGSISSGGYYWSWIRQHPGKGLEWIGNIYYSGITYYNPSLKSRVTMSVDTSKNQFSLKLSSVTAADTAVYYCARDPLYGDYGFDPWGQGTLVTVSS
# VL: B5 VL with F36Y, A50V, D92N
# notes: also called antibody to HGF ultimately derived from hybridoma 2.40.1
# B7: antibody 1.61.3 (antibody, human IgG2, kappa, V domains shown)
# VH: QVQLQESGPGLVKPSQTLSLTCTVSGGSISSDGYYWSWIRQHPGKGLEWIGYIYYSGSTYYNPSLKSRVTISVDTSKNQFSLKLSSVTAADTAVYYCARSHLHYYDSSGYYYGGAFDIWGQGTMVTVSS
# VL: DIQMTQSPSSLSASVGDRVTITCQASQDISNYLNWYQQKPGTAPKLLIYGASDLETGVPSRFSGSGSGTDFTFAISSLQPEDIATYYCQQYDNLPYNFGQGTKLEIKR
# notes: also called antibody to HGF ultimately derived from hybridoma 1.61.3
# B8: antibody 1.60.1 (antibody, human IgG2, kappa, V domains shown)
# VH: QVQLVQSGAEVKKPGASVKVSCKASGYTFTGYYINWVRQAPGQGLEWMGWINPNSGGTNYAQKFQGRVTMTRDTSITTAYMELSRLRADDTAVYYCARELELRYYGMDVWGQGTTVTVSS
# VL: DIQMTQSPSSLSVSVGDRVTITCRASQGISSYLAWYQQKPGKVPKLLIYVASTLQSGVPSRFSGSGSGTDFTLTISSLQPEDVATYYCQNYNSDPLTFGGGTKVEIKR
# notes: also called antibody to HGF ultimately derived from hybridoma 1.60.1
# Biological target: T1, human hepatocyte growth factor (HGF) (human, UniProt P14210 32-728)
# T1 construct: Recombinant protein; The mature protein is a heterodimer of the alpha and beta subunits; also called human HGF; full length HGF
# T1 sequence (P14210 32-728 limits assumed): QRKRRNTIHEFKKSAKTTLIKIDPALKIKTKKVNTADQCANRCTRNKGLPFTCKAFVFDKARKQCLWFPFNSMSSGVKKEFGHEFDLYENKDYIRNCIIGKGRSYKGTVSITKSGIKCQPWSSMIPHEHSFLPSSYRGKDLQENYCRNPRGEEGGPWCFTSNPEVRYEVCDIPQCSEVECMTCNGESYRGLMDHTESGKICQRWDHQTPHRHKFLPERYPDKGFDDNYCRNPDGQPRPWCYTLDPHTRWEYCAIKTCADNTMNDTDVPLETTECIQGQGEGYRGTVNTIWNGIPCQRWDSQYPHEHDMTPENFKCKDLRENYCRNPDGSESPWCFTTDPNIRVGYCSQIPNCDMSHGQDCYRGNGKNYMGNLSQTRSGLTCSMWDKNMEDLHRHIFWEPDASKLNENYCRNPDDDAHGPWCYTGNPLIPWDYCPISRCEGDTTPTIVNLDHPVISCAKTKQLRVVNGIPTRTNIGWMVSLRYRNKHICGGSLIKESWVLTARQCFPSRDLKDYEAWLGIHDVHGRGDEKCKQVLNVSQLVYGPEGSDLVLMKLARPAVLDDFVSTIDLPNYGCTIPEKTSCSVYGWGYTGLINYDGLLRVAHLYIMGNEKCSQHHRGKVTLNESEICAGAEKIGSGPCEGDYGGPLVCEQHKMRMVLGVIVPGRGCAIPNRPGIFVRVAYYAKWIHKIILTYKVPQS
# Experiment: neutralization ELISA (left table): inhibition of the binding of soluble Met (2 nM) to plate-coated HGF, detected with biotinylated anti-cMetR antibody and Eu-streptavidin; column head 'IC50 IP (nM)'
# Method: (§1) A neutralization ELISA assay was developed to assess whether the antibodies discussed in Example 6 could interrupt Met-HGF binding. Delphia 96-well plates (Cat#: AAAND-0001, Wallac Inc., Gaithersburg, Md.) were coated with HGF by adding 100 μl of HGF at 6.25 μg/ml per well. The plates were incubated at 37° C. for 1 hour or at 4° C. overnight. The plates were then blocked with 5% BSA (Cat#50-61-00, KPL, Gaithersburg, Md.) in PBS containing 0.1% Tween 20 for 1 hour at room temperature with shaking.
# (§2) Test samples were prepared by separately mixing soluble Met (2 nM, 0.256 μg/ml) with different concentrations of a particular antibody to HGF being tested. The concentrations tested were: 667 nM, 223 nM, 74.1 nM, 24.7 nM, 8.2 nM, 2.7 nM, 0.91 nM, 0.30 nM, 0.10 nM, and 0.034 nM. A volume of 100 μl of a test sample was added to each well of the plates. The plates were then incubated at 4° C. overnight and then washed 4 times with PBS containing 0.1% Tween 20. Next, 100 μl per well of Biotinylated anti-cMetR antibody (Cat#: BAF358, R&D Systems Inc., Minneapolis, Minn.) at 2 μg/ml, was added. […] The plates were then incubated for 2 hours with shaking, and were washed 4 times with PBS containing 0.1% Tween 20. Eu-streptavidin (1:1000 dilution in Assay buffer) (Cat#1244-360, Wallac Inc., Gaithersburg, Md.) was added and the plates were shaken at room temperature for 1 hour. The plates were then washed 4 times with PBS containing 0.1% Tween 20. Next, 100 μl of enhancement buffer (Wallac Inc., Cat#: 1244-105, Gaithersburg, Md.) was added. After at least for 5 minutes, the plates were read using Europium method on Victor 2 (1420 Multilabel Counter, Wallac Inc., Gaithersburg, Md.).
# (§3) Percent inhibition of Met binding to HGF (i.e. neutralization) was calculated and IC₅₀ values were determined using the 4 parameter fit equation Excelfit, Version 2.0.6, (Microsoft Inc, Seattle, Wash.). In the presence of the antibodies to HGF discussed in Examples 6, Met binding to HGF was neutralized.
row,IC50 [nM],Binder
1,3.2,B1
2,0.9,B2
3,2.6,B3
4,3.7,B4
5,1,B5
6,1,B6

# Biological target: T2, mouse HGF (mouse, UniProt Q08048 33-728)
# T2 construct: also called recombinant mouse HGF; mHGF
# T2 sequence (Q08048 33-728 limits assumed): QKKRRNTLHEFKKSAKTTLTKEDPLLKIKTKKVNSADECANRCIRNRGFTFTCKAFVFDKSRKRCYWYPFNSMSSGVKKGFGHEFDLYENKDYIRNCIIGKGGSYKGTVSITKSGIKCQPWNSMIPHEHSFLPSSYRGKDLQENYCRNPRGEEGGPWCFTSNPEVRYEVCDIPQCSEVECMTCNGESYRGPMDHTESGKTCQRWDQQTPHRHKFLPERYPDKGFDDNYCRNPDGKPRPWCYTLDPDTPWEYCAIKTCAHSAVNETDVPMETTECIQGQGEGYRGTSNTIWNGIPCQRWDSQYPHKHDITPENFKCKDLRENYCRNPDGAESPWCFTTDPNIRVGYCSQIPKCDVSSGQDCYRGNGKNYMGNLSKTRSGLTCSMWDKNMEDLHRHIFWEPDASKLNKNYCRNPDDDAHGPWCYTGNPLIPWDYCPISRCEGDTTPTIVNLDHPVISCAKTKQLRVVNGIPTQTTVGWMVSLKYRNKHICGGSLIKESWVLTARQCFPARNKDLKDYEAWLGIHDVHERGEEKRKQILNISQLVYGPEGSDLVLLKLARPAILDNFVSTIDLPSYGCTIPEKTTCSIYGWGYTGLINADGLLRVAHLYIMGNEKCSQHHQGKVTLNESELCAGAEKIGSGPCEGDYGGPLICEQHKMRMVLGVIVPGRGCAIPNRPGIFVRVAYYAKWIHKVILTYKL
# Experiment: FACS bead assay: antibody incubated with the avidin fusion of mouse HGF, captured on biotin-coated beads; FITC anti-avidin (x) against PE goat anti-human F(ab')2 (y)
# Method: After incubation, the fusion proteins in each sample were separately captured using biotin-coated beads (Spherotech Inc., Libertyville, Ill., Cat # TP-60-5). The resulting bead-protein complexes were labeled by adding FITC labeled anti-avidin antibody (Vector Lab, Burlingame, Calif., Cat. # SP-2040). The presence of antibodies to HGF was determined by adding phycoerythrin (PE) labeled goat anti-human F(ab′)2 antibody (Southern Biotech Associates, Inc, Birmingham, Ala., Cat #2043-09).
# Those samples were then subjected to Fluorescence Activated Cell Sorter (FACS) analysis. Bead complexes labeled by FITC (which indicated the presence of avidin) and/or PE (which indicated the presence of antibody to HGF) were detected on a Becton Dickinson Bioscience FACScan (BD, Franklin Lakes, N.J.).
row,binding result,Binder
1,no binding,B2
2,no binding,B4

# Biological target: T1, human hepatocyte growth factor (HGF)
# Experiment: neutralization ELISA (right table): inhibition of the binding of soluble Met (2 nM) to plate-coated HGF, detected with biotinylated anti-cMetR antibody and Eu-streptavidin; column head 'IC50 IP (nM)'
# Method: as §1, §2, §3
row,IC50 [nM],Binder
1,1.93,B1
2,0.37,B2
3,9.36,B3
4,2.31,B4
5,0.72,B5
6,2.59,B7

# Biological target: T1, human hepatocyte growth factor (HGF)
# Experiment: BIAcore 3000, kinetic method: antibody captured on immobilized Protein G, human HGF (0-100 nM) injected
# From the text: The running buffer for those analyses was PBS with 0.005% P20 surfactant (BIAcore, Inc. Piscataway, N.J.). Recombinant Protein G (Pierce, Rockford, Ill.) was immobilized to a research grade CM5 sensor chip (Biacore, Inc. Piscataway, N.J.) via primary amine groups using the Amine Coupling Kit (Biacore, Inc. Piscataway, N.J.), according to the manufacturer's instructions.
# In six separate samples, about 200 resonance units (RU) of each of the six antibodies to HGF was separately attached to immobilized Protein G following the manufacturer's instructions. Samples comprising various concentrations (0-100 nM) of human HGF were injected over the bound antibody surface at a flow rate of 50 μl/min for 3 minutes. Antibody binding kinetic parameters including kₐ (association rate constant), kd (dissociation rate constant), and KD (dissociation equilibrium constant) were determined using the BIA evaluation 3.1 computer program (BIAcore, Inc. Piscataway, N.J.). Lower dissociation equilibrium constants indicate greater affinity of the antibody for HGF.
Kd [nM],koff [s⁻¹],kon [M⁻¹ s⁻¹],Binder
~0.79,4.8e-05,62000,B1
~0.47,3e-05,65000,B2
~0.36,4.7e-05,130000,B4
~0.78,2.8e-05,36000,B5

# Biological target: T1, human hepatocyte growth factor (HGF)
# Experiment: BIAcore 3000, equilibrium/solution method: antibody (0.01-50 nM) incubated with human HGF (0.05 nM and 1 nM), free HGF measured on a chip carrying the same antibody
# Method: That method was performed with a BIAcore®3000 (Biacore, Inc., Piscataway, N.J.) using PBS with 0.005% P20 surfactant (BIAcore, Inc. Piscataway, N.J.) as running buffer. The four antibodies to HGF were separately immobilized to research grade CM5 sensor chips (Biacore, Inc. Piscataway, N.J.) via primary amine groups using an Amine Coupling Kit (Biacore, Inc. Piscataway, N.J.) following the manufacturer's instructions.
# In separate assays, each of the four antibodies to HGF, over a range of concentrations (from 0.01 nM to 50 nM) was separately incubated with each of two different concentrations (0.05 nM and 1 nM) of human HGF in PBS with 0.005% P-20 and 0.1 mg/mL BSA at room temperature for at least six hours. Each of those samples was then injected over a surface of a CM5 sensor chip onto which the same antibody to HGF had been immobilized. The binding signal obtained was proportional to the free HGF in solution. The dissociation equilibrium constant (KD) was obtained from nonlinear regression analysis of the competition curves using a dual-curve one-site homogeneous binding model (KinExA software, Sapidyne Instruments Inc., Boise Id.).
row,Kd [nM],Binder
1,0.034,B1
2,0.041,B4

# Biological target: T2, mouse HGF
# Experiment: Western blot, non-reducing and reducing SDS-PAGE
# Method: Human HGF and mouse HGF were run on separate lanes of SDS PAGE gels. Human HGF and mouse HGF were each separately run at 100 ng/lane and at 10 ng/lane. Some gels were run under non-reducing conditions and other separate gels were run under reducing conditions using beta-mercaptoethanol. The human HGF and mouse HGF in the SDS PAGE gels were transferred to nitrocellulose membranes. Those membranes were separately incubated with one of the ten antibodies to HGF described in Example 6. Each of the ten antibodies to HGF was separately incubated with nitrocellulose membranes from gels containing human HGF and mouse HGF under reducing and with nitrocellulose membranes from gels containing human HGF and mouse HGF under non-reducing conditions. The membranes were then incubated with a goat anti-human IgG antibody linked to HRP (Pierce, Rockford, Ill., Cat. #31412). Signal from that goat anti-human IgG antibody linked to HRP was detected by […] (ECL™; Amersham Pharmacia Biotech, Piscataway, N.J., Cat. # RPN₂₁₀₆) following the manufacturer's instructions.
row,Binder,binding result
1,B1,no binding (tested: 100 ng and 10 ng per lane)
2,B3,no binding (tested: 100 ng and 10 ng per lane)
3,B5,no binding (tested: 100 ng and 10 ng per lane)
4,B6,no binding (tested: 100 ng and 10 ng per lane)
5,B8,no binding (tested: 100 ng and 10 ng per lane)
6,B7,no binding (tested: 100 ng and 10 ng per lane)

# Biological target: T1, human hepatocyte growth factor (HGF)
# Experiment: cell-based or functional assay
row,Binder,"IC50, inhibition of growth/survival of U-87 MG cells [nM]"
1,B1,< 100
2,B2,< 100
3,B3,< 100
4,B4,< 100
5,B5,< 100
6,B6,< 100
7,B8,< 100
8,B7,< 100

# Reference: patent publication US20140154243A1 (Amgen, published 2014)
